Measurements as given in US20210139548A1 (published 2021).
*1 amine or outer side, *2 acyl side, *3 side chain or, on linkers, in order; H or OH if unused. Side-chain parts run from the residue outwards. The star is where a group is joined. C18 diacid = O=C(O)CCCCCCCCCCCCCCCCC(=O)*; γGlu = O=C(O)[C@H](CCC(=O)[*:2])N[*:1]; Isovaleryl = CC(C)CC(=O)*; AEEA = NCCOCCOCC(=O)O

B1: Compound 87 (peptide)
peptide: Isovaleryl-APEK([AEEA-AEEA-γGlu-C18 diacid])PEEDSSPAELQRYYVSLRHYYNWLTRQRY-NH2
SMILES: CC(C)CC(=O)N[C@@H](C)C(=O)N1CCC[C@H]1C(=O)N[C@@H](CCC(=O)O)C(=O)N[C@@H](CCCCNC(=O)COCCOCCNC(=O)COCCOCCNC(=O)CC[C@H](NC(=O)CCCCCCCCCCCCCCCCC(=O)O)C(=O)O)C(=O)N1CCC[C@H]1C(=O)N[C@@H](CCC(=O)O)C(=O)N[C@@H](CCC(=O)O)C(=O)N[C@@H](CC(=O)O)C(=O)N[C@@H](CO)C(=O)N[C@@H](CO)C(=O)N1CCC[C@H]1C(=O)N[C@@H](C)C(=O)N[C@@H](CCC(=O)O)C(=O)N[C@@H](CC(C)C)C(=O)N[C@@H](CCC(N)=O)C(=O)N[C@@H](CCCNC(=N)N)C(=O)N[C@@H](Cc1ccc(O)cc1)C(=O)N[C@@H](Cc1ccc(O)cc1)C(=O)N[C@H](C(=O)N[C@@H](CO)C(=O)N[C@@H](CC(C)C)C(=O)N[C@@H](CCCNC(=N)N)C(=O)N[C@@H](Cc1c[nH]cn1)C(=O)N[C@@H](Cc1ccc(O)cc1)C(=O)N[C@@H](Cc1ccc(O)cc1)C(=O)N[C@@H](CC(N)=O)C(=O)N[C@@H](Cc1c[nH]c2ccccc12)C(=O)N[C@@H](CC(C)C)C(=O)N[C@H](C(=O)N[C@@H](CCCNC(=N)N)C(=O)N[C@@H](CCC(N)=O)C(=O)N[C@@H](CCCNC(=N)N)C(=O)N[C@@H](Cc1ccc(O)cc1)C(N)=O)[C@@H](C)O)C(C)C
B2: Compound 89 (peptide)
peptide: Isovaleryl-APEK([AEEA-AEEA-γGlu-C18 diacid])PEEEAEPEELQRYYVSLRHYYNWLTRQRY-NH2
SMILES: CC(C)CC(=O)N[C@@H](C)C(=O)N1CCC[C@H]1C(=O)N[C@@H](CCC(=O)O)C(=O)N[C@@H](CCCCNC(=O)COCCOCCNC(=O)COCCOCCNC(=O)CC[C@H](NC(=O)CCCCCCCCCCCCCCCCC(=O)O)C(=O)O)C(=O)N1CCC[C@H]1C(=O)N[C@@H](CCC(=O)O)C(=O)N[C@@H](CCC(=O)O)C(=O)N[C@@H](CCC(=O)O)C(=O)N[C@@H](C)C(=O)N[C@@H](CCC(=O)O)C(=O)N1CCC[C@H]1C(=O)N[C@@H](CCC(=O)O)C(=O)N[C@@H](CCC(=O)O)C(=O)N[C@@H](CC(C)C)C(=O)N[C@@H](CCC(N)=O)C(=O)N[C@@H](CCCNC(=N)N)C(=O)N[C@@H](Cc1ccc(O)cc1)C(=O)N[C@@H](Cc1ccc(O)cc1)C(=O)N[C@H](C(=O)N[C@@H](CO)C(=O)N[C@@H](CC(C)C)C(=O)N[C@@H](CCCNC(=N)N)C(=O)N[C@@H](Cc1c[nH]cn1)C(=O)N[C@@H](Cc1ccc(O)cc1)C(=O)N[C@@H](Cc1ccc(O)cc1)C(=O)N[C@@H](CC(N)=O)C(=O)N[C@@H](Cc1c[nH]c2ccccc12)C(=O)N[C@@H](CC(C)C)C(=O)N[C@H](C(=O)N[C@@H](CCCNC(=N)N)C(=O)N[C@@H](CCC(N)=O)C(=O)N[C@@H](CCCNC(=N)N)C(=O)N[C@@H](Cc1ccc(O)cc1)C(N)=O)[C@@H](C)O)C(C)C
B3: Compound 90 (peptide)
peptide: Isovaleryl-APEK([AEEA-AEEA-γGlu-C18 diacid])PEEDASPEELQRYEVSLRHYYNWLTRQRY-NH2
SMILES: CC(C)CC(=O)N[C@@H](C)C(=O)N1CCC[C@H]1C(=O)N[C@@H](CCC(=O)O)C(=O)N[C@@H](CCCCNC(=O)COCCOCCNC(=O)COCCOCCNC(=O)CC[C@H](NC(=O)CCCCCCCCCCCCCCCCC(=O)O)C(=O)O)C(=O)N1CCC[C@H]1C(=O)N[C@@H](CCC(=O)O)C(=O)N[C@@H](CCC(=O)O)C(=O)N[C@@H](CC(=O)O)C(=O)N[C@@H](C)C(=O)N[C@@H](CO)C(=O)N1CCC[C@H]1C(=O)N[C@@H](CCC(=O)O)C(=O)N[C@@H](CCC(=O)O)C(=O)N[C@@H](CC(C)C)C(=O)N[C@@H](CCC(N)=O)C(=O)N[C@@H](CCCNC(=N)N)C(=O)N[C@@H](Cc1ccc(O)cc1)C(=O)N[C@@H](CCC(=O)O)C(=O)N[C@H](C(=O)N[C@@H](CO)C(=O)N[C@@H](CC(C)C)C(=O)N[C@@H](CCCNC(=N)N)C(=O)N[C@@H](Cc1c[nH]cn1)C(=O)N[C@@H](Cc1ccc(O)cc1)C(=O)N[C@@H](Cc1ccc(O)cc1)C(=O)N[C@@H](CC(N)=O)C(=O)N[C@@H](Cc1c[nH]c2ccccc12)C(=O)N[C@@H](CC(C)C)C(=O)N[C@H](C(=O)N[C@@H](CCCNC(=N)N)C(=O)N[C@@H](CCC(N)=O)C(=O)N[C@@H](CCCNC(=N)N)C(=O)N[C@@H](Cc1ccc(O)cc1)C(N)=O)[C@@H](C)O)C(C)C
B4: Compound 92 (peptide)
peptide: Isovaleryl-APEK([AEEA-AEEA-γGlu-C18 diacid])PEEDTSPEELQRYYVSLRHYYNWLTRQRY-NH2
SMILES: CC(C)CC(=O)N[C@@H](C)C(=O)N1CCC[C@H]1C(=O)N[C@@H](CCC(=O)O)C(=O)N[C@@H](CCCCNC(=O)COCCOCCNC(=O)COCCOCCNC(=O)CC[C@H](NC(=O)CCCCCCCCCCCCCCCCC(=O)O)C(=O)O)C(=O)N1CCC[C@H]1C(=O)N[C@@H](CCC(=O)O)C(=O)N[C@@H](CCC(=O)O)C(=O)N[C@@H](CC(=O)O)C(=O)N[C@H](C(=O)N[C@@H](CO)C(=O)N1CCC[C@H]1C(=O)N[C@@H](CCC(=O)O)C(=O)N[C@@H](CCC(=O)O)C(=O)N[C@@H](CC(C)C)C(=O)N[C@@H](CCC(N)=O)C(=O)N[C@@H](CCCNC(=N)N)C(=O)N[C@@H](Cc1ccc(O)cc1)C(=O)N[C@@H](Cc1ccc(O)cc1)C(=O)N[C@H](C(=O)N[C@@H](CO)C(=O)N[C@@H](CC(C)C)C(=O)N[C@@H](CCCNC(=N)N)C(=O)N[C@@H](Cc1c[nH]cn1)C(=O)N[C@@H](Cc1ccc(O)cc1)C(=O)N[C@@H](Cc1ccc(O)cc1)C(=O)N[C@@H](CC(N)=O)C(=O)N[C@@H](Cc1c[nH]c2ccccc12)C(=O)N[C@@H](CC(C)C)C(=O)N[C@H](C(=O)N[C@@H](CCCNC(=N)N)C(=O)N[C@@H](CCC(N)=O)C(=O)N[C@@H](CCCNC(=N)N)C(=O)N[C@@H](Cc1ccc(O)cc1)C(N)=O)[C@@H](C)O)C(C)C)[C@@H](C)O
B5: Compound 94 (peptide)
peptide: Isovaleryl-APEK([AEEA-AEEA-γGlu-C18 diacid])PEEDASPEETQRYYVELRHYYNWLTRQRY-NH2
SMILES: CC(C)CC(=O)N[C@@H](C)C(=O)N1CCC[C@H]1C(=O)N[C@@H](CCC(=O)O)C(=O)N[C@@H](CCCCNC(=O)COCCOCCNC(=O)COCCOCCNC(=O)CC[C@H](NC(=O)CCCCCCCCCCCCCCCCC(=O)O)C(=O)O)C(=O)N1CCC[C@H]1C(=O)N[C@@H](CCC(=O)O)C(=O)N[C@@H](CCC(=O)O)C(=O)N[C@@H](CC(=O)O)C(=O)N[C@@H](C)C(=O)N[C@@H](CO)C(=O)N1CCC[C@H]1C(=O)N[C@@H](CCC(=O)O)C(=O)N[C@@H](CCC(=O)O)C(=O)N[C@H](C(=O)N[C@@H](CCC(N)=O)C(=O)N[C@@H](CCCNC(=N)N)C(=O)N[C@@H](Cc1ccc(O)cc1)C(=O)N[C@@H](Cc1ccc(O)cc1)C(=O)N[C@H](C(=O)N[C@@H](CCC(=O)O)C(=O)N[C@@H](CC(C)C)C(=O)N[C@@H](CCCNC(=N)N)C(=O)N[C@@H](Cc1c[nH]cn1)C(=O)N[C@@H](Cc1ccc(O)cc1)C(=O)N[C@@H](Cc1ccc(O)cc1)C(=O)N[C@@H](CC(N)=O)C(=O)N[C@@H](Cc1c[nH]c2ccccc12)C(=O)N[C@@H](CC(C)C)C(=O)N[C@H](C(=O)N[C@@H](CCCNC(=N)N)C(=O)N[C@@H](CCC(N)=O)C(=O)N[C@@H](CCCNC(=N)N)C(=O)N[C@@H](Cc1ccc(O)cc1)C(N)=O)[C@@H](C)O)C(C)C)[C@@H](C)O
B6: Compound 95 (peptide)
peptide: Isovaleryl-APEK([AEEA-AEEA-γGlu-C18 diacid])PEEDASPAEIQRYYVSLRHYYNWLTRQRY-NH2
SMILES: CC[C@H](C)[C@H](NC(=O)[C@H](CCC(=O)O)NC(=O)[C@H](C)NC(=O)[C@@H]1CCCN1C(=O)[C@H](CO)NC(=O)[C@H](C)NC(=O)[C@H](CC(=O)O)NC(=O)[C@H](CCC(=O)O)NC(=O)[C@H](CCC(=O)O)NC(=O)[C@@H]1CCCN1C(=O)[C@H](CCCCNC(=O)COCCOCCNC(=O)COCCOCCNC(=O)CC[C@H](NC(=O)CCCCCCCCCCCCCCCCC(=O)O)C(=O)O)NC(=O)[C@H](CCC(=O)O)NC(=O)[C@@H]1CCCN1C(=O)[C@H](C)NC(=O)CC(C)C)C(=O)N[C@@H](CCC(N)=O)C(=O)N[C@@H](CCCNC(=N)N)C(=O)N[C@@H](Cc1ccc(O)cc1)C(=O)N[C@@H](Cc1ccc(O)cc1)C(=O)N[C@H](C(=O)N[C@@H](CO)C(=O)N[C@@H](CC(C)C)C(=O)N[C@@H](CCCNC(=N)N)C(=O)N[C@@H](Cc1c[nH]cn1)C(=O)N[C@@H](Cc1ccc(O)cc1)C(=O)N[C@@H](Cc1ccc(O)cc1)C(=O)N[C@@H](CC(N)=O)C(=O)N[C@@H](Cc1c[nH]c2ccccc12)C(=O)N[C@@H](CC(C)C)C(=O)N[C@H](C(=O)N[C@@H](CCCNC(=N)N)C(=O)N[C@@H](CCC(N)=O)C(=O)N[C@@H](CCCNC(=N)N)C(=O)N[C@@H](Cc1ccc(O)cc1)C(N)=O)[C@@H](C)O)C(C)C

Target: T1, human neuropeptide Y2 receptor (human, UniProt P49146 1-381)
T1 construct: whole, on cells; also called hNPY2 receptor; hNPY2-R
T1 sequence (looked up): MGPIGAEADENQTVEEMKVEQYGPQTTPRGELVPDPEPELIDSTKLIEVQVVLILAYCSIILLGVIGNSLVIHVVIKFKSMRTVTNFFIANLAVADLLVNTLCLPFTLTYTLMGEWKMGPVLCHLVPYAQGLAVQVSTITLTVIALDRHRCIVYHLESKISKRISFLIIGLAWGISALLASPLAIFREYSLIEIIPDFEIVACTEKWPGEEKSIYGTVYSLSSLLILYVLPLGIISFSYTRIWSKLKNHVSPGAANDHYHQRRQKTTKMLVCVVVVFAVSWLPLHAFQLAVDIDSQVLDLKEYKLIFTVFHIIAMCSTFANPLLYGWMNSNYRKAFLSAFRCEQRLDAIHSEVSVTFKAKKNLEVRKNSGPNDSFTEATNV
Test: radioligand competition (125I-PYY(1-36)), hNPY2R membranes
In short: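 Commercial human Y2 receptor membranes (0.5 μg protein/well) were incubated with peptide for 2 h at room temperature in 50 mM HEPES, 5 mM MgCl₂, 1 mM CaCl₂, pH 7.4, with 0.2% ovalbumin. Bound radioligand was separated on PEI-soaked GF/C filters and counted by scintillation, and IC₅₀ came from nonlinear sigmoidal regression.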

| Binder | Ki |
| --- | --- |
| B1 | 1.97 nM |
| B2 | 9.61 nM |
| B3 | 1.6 nM |
| B4 | 1.57 nM |
| B5 | 2.07 nM |
| B6 | 0.66 nM |
